Results on one molecule are retold here after patent US9803012B2, “Compositions and methods for regulating SAS1R” (UNIVERSITY OF VIRGINIA PATENT FOUNDATION, priority 2005, dated 2017).

In one experiment the test system is M2 oocytes. The experiment can be described thus: Co-localization of rSLLP1 binding sites and SAS1R on oocytes. The note with it: oocytes incubated with rSLLP1, probed with SLLP1 and SAS1R antibodies. It counts as cell-based, mouse. As to the method: Zona intact-, zona free oocytes, early embryos and sperm were collected as before (10), blocked and probed with 1st and 2nd antibody and imaged with UV-microscopy. For co-LC studies, gametes were incubated with soluble rSAS1R or rSLLP1, washed, probed with 1st- and 2nd antibodies and imaged with UV-microscopy.
Mouse oocytes were also examined for co-localization of SLLP1 binding sites and SAS1R localization. Oocytes were incubated with gradually increasing concentrations (0-100 μg/ml) of recombinant SLLP1 for 1 h, and then oocytes were washed five times and incubated with guinea pig anti-recombinant SAS1R polyclonal antibody (1:200) and rat anti-recombinant SLLP1 polyclonal antibody (1:200), simultaneously, in 0.1% NGS/media for 1 h at 37° C. and 5% CO2. Oocytes were washed five times and incubated with goat anti-guinea pig/Cy3 Red antibody (1:200) (Jackson ImmunoResearch, PA) and goat anti-rat/FITC Green antibody (1:200) (Jackson ImmunoResearch, PA), in 0.1% NGS/media for 1 h at 37° C. and 5% CO2. Oocytes were washed and mounted in media on glass slides. SLLP1 and SAS1R images were captured separately with MrGrab 1.0 (Carl Zeiss Vision GmbH, Germany) on the Zeiss Standard 18 ultraviolet microscope and were merged digitally to evaluate their respective localizations.

A further experiment relates to cumulus intact oocytes. The experiment can be described thus: In vitro fertilization with cumulus-oocyte complexes (SLLP1 antiserum, recmSLLP1). It counts as cell-based, mouse. Particulars: for % Fertilization: oocytes 45 min prior to insemination. The method, then: Hybrid F1 mice (C57BL/6J×CBA) were used in all experiments. Suspensions of epididymal spermatozoa from sexually mature male mice were prepared for insemination of isolated oocytes. Oocytes were obtained from 28-day-old females superovulated with 10 IU PMSG and 10 IU hCG, injected intraperitoneally 48 h apart. Females were killed 16 h after hCG injection and both oviducts were immediately removed and placed in mineral oil.
In vitro fertilization with cumulus intact oocytes was conducted with sperm dispersed from cauda epididymides placed for 5 min in 200 μl drops of fertilization medium under paraffin oil. The sperm suspension was diluted to a concentration of 10^6 sperm/ml in a volume of 200 μl and then incubated for 120 min in a humidified tissue culture incubator (37° C., 5% CO2 in air) to allow capacitation. In the experiments where anti-recmSLLP1 serum was tested, spermatozoa were incubated with varying concentrations of decomplemented (56° C., 30 min) immune or preimmune serum for the last 45 min of capacitation. In the experiments where recmSLLP1 was evaluated, spermatozoa were incubated under standard capacitating conditions.
Cumulus masses were placed in 135 μl drops of fertilization medium (one mass per drop) under paraffin oil and were incubated for 45 min with immune or preimmune serum or in presence or absence of recmSLLP1 prior to insemination. Fifteen μl of the sperm suspension (final concentration: 10^5 sperm/ml) was then added to each cumulus mass drop. Thus, sera or recombinant protein was present in the incubation droplet during gamete interaction. Six hours following insemination oocytes were relocated in 100 μl drops of fertilization medium under mineral oil. Following overnight incubation, eggs were stained in Hoechst dye (10 μg/ml) for 10 min and washed 3 times in fertilization medium. The eggs were then placed in a 5 μl drop of fertilization medium between a microscope slide and an elevated coverslip, and visualized at 160× using light and fluorescence microscopy (Zeiss Axioplan). Two cells embryos were scored as fertilized, while one-celled oocytes were scored as unfertilized.

For the next experiment, the system named is zona-free mouse eggs. The experiment can be described thus: In vitro fertilization with zona-free eggs (sperm-oolemma binding and fusion). Format: cell-based. As to the method:
For the sperm-oolemma binding assay, two cauda epididymides were placed in 900 μl drops of fertilization medium under paraffin oil for the dense mass of spermatozoa to flow freely for ˜15 min and then diluted at 1×10^6/ml for 3 h of capacitation. Cumulus oocyte complexes were placed in 200 μl drops of TYH medium under paraffin oil. Cumulus cells were removed by treating the oocytes for 3 min with 1 mg/ml hyaluronidase in TYH medium and then washed 8 times in 50 μl drops. Zona pellucidae were loosened by treating the oocytes with 10 μg/ml chymotrypsin in TYH media for 1 min and loosened zonae were removed by mechanical agitation using a pulled Pasteur pipette. The oocytes were then washed 10 times and allowed to recover from chymotrypsin treatment by incubating in TYH media for 3 h, following which, they were stained with 10 μg/ml Hoechst dye for 10 min, and then gently washed. […]
To compare the effects of recmSLLP1 with human and chicken c lysozymes, spermatozoa were first incubated under standard capacitating conditions. Oocytes were pre-incubated for 45 min before insemination with recmSLLP1 (0.1 to 200 μg/ml) or with hSLLP1 (25 μg/ml) or with chicken or human lysozyme (50 μg/ml, 100 μg/ml). Untreated capacitated sperm were then added to the incubation drops containing the treated eggs with a final sperm concentration of 2.5×10^4/ml. Thus, in all the experiments performed the sera, the recombinant protein, or the lysozyme was present in the incubation droplet during gamete interaction. After 30 min of gamete co-incubation, oocytes were gently washed 5 times in TYH medium and placed between a microscope slide and an elevated coverslip and visualized at 160×. Binding to the oocyte was scored by counting the number of bound spermatozoa per oocyte using phase contrast. Fusion with the egg was scored by counting the number of decondensed sperm heads within each oocyte using fluorescence microscopy.

The next experiment deals with Metaphase II eggs. The experiment can be described thus: Egg labeling by indirect immunofluorescence. Format: cell-based, mouse. Particulars: 100 μg/ml protein, 45 min. As to the method:
Metaphase II eggs were obtained as previously described (Coonrod et al, 1999) and incubated with 5% NGS/media for 30 min. Oocytes were washed five times in TYH medium and incubated with 100 μg/ml recmSLLP1 or 100 μg/ml lysozymes for 45 min at 37° C. and 5% CO2. Oocytes were washed five times and incubated with guinea pig anti-recmSLLP1 polyclonal antibody (1:50), sheep anti-human lysozyme (1:25) or rabbit anti-chicken lysozyme (1:400) in 5% NGS/media for 1 h at 37° C. and 5% CO2. Oocytes were washed five times and incubated with donkey anti-guinea pig/Texas Red antibody (1:200) or goat anti-guinea pig/FITC antisera 1:200), donkey anti-sheep and goat anti-rabbit FITC-labeled secondary antibody (1:200) (Jackson ImmunoResearch), respectively in 5% NGS/media for 1 h at […] 37° C. and 5% CO2. Oocytes were washed and mounted in media onto glass slides and visualized under a Zeiss Standard 18 ultraviolet microscope. Images were captured by using MrGrab 1.0 (Carl Zeiss Vision GmbH, Germany).

Setting [1] is: recmSLLP1 200 μg/ml (12.5 μM), oocytes pre-incubated.
The mark [2] stands for this setting: relative to the controls, including recombinant egg protein ePAD.

B1: recmSLLP1: mature mouse SLLP1, residues 94 to 221, six-histidine C terminal tag, expressed in E. coli, about 15 kDa (protein)
chain: KVFSRCELAKEMHDFGLDGYRGYNLADWVCLAYYTSGFNTNAVDHEADGSTNNGIFQISSRRWCRTLASNGPNLCRIYCTDLLNNDLKDSIVCAMKIVQEPLGLGYWEAWRHHCQGRDLSDWVDGCDF
modifications: left off: small tags and cut ends
Turning to B1, the binding to oocytes entry with M2 oocytes was “binds to oocyte microvillar domain and co-localizes with native SAS1R”. In the experiment on cumulus intact oocytes (recmSLLP1 50 μg/ml), the “difference in percentage of fertilization vs control” value is recorded as “no significant difference” and the “% Fertilization” value is listed as 48%. Further, in the experiment with cumulus intact oocytes (recmSLLP1 200 μg/ml, P≦0.05), the “inhibition of fertilization rate vs control” value was 73%. Moreover, the “% Fertilization” value in the experiment on cumulus intact oocytes (recmSLLP1 200 μg/ml) came to 12%. Further, the “sperm-egg binding and fusion” value in the experiment with zona-free mouse eggs (50 μg of mouse SLLP1) is reported as “maximally inhibited”. Also, in the experiment on zona-free mouse eggs (setting [1]), the inhibition of binding was determined as 100% and the inhibition of fusion amounted to 100%. Further, in the experiment on zona-free mouse eggs (recmSLLP1 0.1-200 μg/ml), the “lowest concentration with significant effect on spermatozoa bound to or fused to the egg” value is 0.1 µg/mL. Besides, in the experiment with zona-free mouse eggs (setting [2]), the “sperm-egg binding, number of sperm bound/egg” value was “essentially completely inhibit” and the sperm-egg fusion result is given as “essentially completely inhibit”. Besides, the “fluorescence of mouse oocytes after incubation with protein and respective antibody” value in the experiment on Metaphase II eggs is “fluorescent labeling within the perivitelline space and over much of the oocyte surface”.
